Measurements taken from paper PMC10477060.

Target: GST-tagged p65_(532–550) (human)
Test: pull-down

Substance	binding efficiency (bound fragment intensity/input fragment intensity) [%]
His-DNA-PKcs_(541-988) (from UniProt P78527 541-988) (domain or fragment)	17
His-DNA-PKcs_(2408-2819) (from UniProt P78527 2408-2819) (domain or fragment)	99
